According to patent publication US20230330251A1, “METHODS FOR TREATING CANCERS WITH ANTIBODY DRUG CONJUGATES (ADC) THAT BIND TO 191P4D12 PROTEINS” (AGENSYS, INC., priority 2020, published 2023):

How the values were obtained:
[1] = tested on: metastatic urothelial cancer patients and non-metastatic urothelial cancer patients; experiment: Phase 1 study of EV, escalating dose levels 0.5-1.25 mg/kg: safety, DLT, MTD; assay type: in vivo, human
Experimental: EV will be administered at a dose of 1.25 mg/kg as an intravenous infusion over approximately 30 minutes on Days 1, 8, and 15 of each 28-day cycle. […] A maximum tolerated dose (MTD) was not reached in this study. At the 1 mg/kg dose level, 2 dose- limiting toxicities (DLTs) were observed: Grade 3 proctalgia (later changed to grade 2 by the investigator) thought related to radiation recall and Grade 4 hyperuricemia without clinical sequelae.
Moreover, dose reductions due to AEs were more frequent for the 1.25 mg/kg vs lower dose levels.
In the phase 1 study, rash and similar dermatologic AE's were common among patients treated with EV, and were seen more frequently at the highest dose. Although the exact etiology of dermatologic toxicities associated with EV is unclear at this time, due to the expression of nectin-4 in the skin, rash maybe an on target toxicity. The most common type of dermatological AE reported in ASG-22CE-13-2 was maculo-papular rash, rash, skin exfoliation, and skin pigmentation disorder. Most occurred early on (during cycle 1), and some were associated with pruritus. Mild rash due to EV should be treated using local supportive care as needed. Topical corticosteroids have been used along with antihistamines for pruritus as needed.

[2] = tested on: subjects with previously treated locally advanced or metastatic urothelial cancer; settings: in vivo
Description: The Safety Analysis Set (SAF) will be used for the safety analysis. All subjects who are randomized and received study drug will be included in the SAF. The frequency of AEs and the serious AEs will be summarized by MedDRA system organ class and preferred term. In addition, summary statistics will be provided for the following safety parameters: • Laboratory values • Vital sign measurements • ECOG PS
An AE is any untoward medical occurrence in a subject, temporally associated with the use of a medicinal product, whether or not considered related to the medicinal product. An AE can therefore be any unfavorable and unintended sign (including an abnormal laboratory finding), symptom, or disease (new or exacerbated) temporally associated with the use of a medicinal product.
AEs, including abnormal clinical laboratory values, will be graded using the NCI-CTCAE guidelines (Version 4.03).
The safety analysis set (SAF), which consists of all subjects who received any amount of study drug, will be used for safety analyses.
SAF was used to perform all safety analysis. All treated subjects were analyzed according to the treatment they received.
The number and percentage of AEs by severity were also summarized. All AEs were listed.
A study drug-related TEAE is defined as any TEAE with a causal relationship of YES by the investigator. AEs of interest as classified by customized MedDRA queries and/or standard MedDRA queries were also summarized.

## enfortumab vedotin
[1]; 1 mg/kg dose level, Grade 3 proctalgia, Grade 4 hyperuricemia
  dose-limiting toxicities (DLTs) observed: 2
[1]; 1.25 mg/kg
  DLT: No DLT was observed
[1]; 1.25 mg/kg vs lower dose levels
  dose reductions due to AEs: more frequent
[1]; across dose levels
  frequency of all TEAEs, AEs leading to withdrawal, and Grade 3-4 TEAEs: comparable across all dose levels
[1]; by dose level, primarily Grades 1-2
  Incidence of the most frequent drug-related AEs, such as diarrhea and rash: increased with increasing dose levels
[1]; dose levels 0.5, 0.75, 1 and 1.25 mg/kg
  maximum tolerated dose (MTD): not reached
[1]; phase 1 study, more frequent at the highest dose
  rash and similar dermatologic AE's: common
[2]
  Death, %: (43.9%)
  Drug-Related Serious TEAE, %: (22.6%)
  Drug-Related TEAE Leading to Death, %: (2.4%)
  Drug-Related TEAE Leading to Death, Exclusing Disease Progression, %: (2.4%)
  Drug-Related TEAE Leading to Withdrawal of Treatment, %: (13.5%)
  Drug-Related TEAE with CTCAE Grade >=3, %: (51.4%)
  Drug-Related TEAE, %: (93.9%)
  Serious TEAE, %: (46.6%)
  TEAE Leading to Death, %: (7.1%)
  TEAE Leading to Death, Exclusing Disease Progression, %: (3.7%)
  TEAE Leading to Withdrawal of Treatment, %: (17.2%)
  TEAE Leading to dose interruption, %: (60.8) %
  TEAE Leading to dose reduction, %: (34.1) %
  TEAE with CTCAE Grade >=3, %: (70.9%)
  TEAE, %: (98.0%)
  TEAE: Alopecia, %: (47.0) %
  TEAE: Anemia, %: (19.9) %
  TEAE: Constipation, %: (27.7) %
  TEAE: Decreased appetite, %: (40.9) %
  TEAE: Diarrhea, %: (34.8) %
  TEAE: Dysgeusia, %: (25.0) %
  TEAE: Fatigue, %: (36.1) %
  TEAE: Nausea, %: (30.1) %
  TEAE: Peripheral sensory neuropathy, %: (34.5) %
  TEAE: Pruritis, %: (34.5) %
  TEAE: Pyrexia, %: (22.0) %
  TRAE Leading to dose interruption: Anemia, %: (2.7) %
  TRAE Leading to dose interruption: Asthenia, %: (2.0) %
  TRAE Leading to dose interruption: Diarrhea, %: (2.0) %
  TRAE Leading to dose interruption: Drug eruption, %: (2.4) %
  TRAE Leading to dose interruption: Fatigue, %: (5.4) %
  TRAE Leading to dose interruption: Neuropathy peripheral, %: (3.0) %
  TRAE Leading to dose interruption: Neutropenia, %: (2.0) %
  TRAE Leading to dose interruption: Neutrophil count decreased, %: (5.1) %
  TRAE Leading to dose interruption: Peripheral sensory neuropathy, %: (15.5) %
  TRAE Leading to dose interruption: Rash maculo-papular, %: (4.4) %
  TRAE Leading to dose interruption: Rash, %: (3.4) %
  TRAE Leading to dose reduction: Decreased appetite, %: (3.4) %
  TRAE Leading to dose reduction: Fatigue, %: (2.7) %
  TRAE Leading to dose reduction: Neutropenia, %: (1.7) %
  TRAE Leading to dose reduction: Neutrophil count decreased, %: (2.0) %
  TRAE Leading to dose reduction: Peripheral sensory neuropathy, %: (7.1) %
  TRAE Leading to dose reduction: Rash maculo-papular, %: (4.4) %
  TRAE Leading to dose withdrawal: Peripheral sensory neuropathy, %: (2.4) %
